For the assay, the target named is extra-domain B (ED-B) of fibronectin, as present in arteriosclerotic plaque of aorta specimens of WHHL rabbits (rabbit (WHHL rabbit aorta tissue)) (UniProt Q28749). Kind of assay: in vitro perfusion (Ussing chamber) of WHHL rabbit aorta specimens with radiolabeled scFv, 20 min at room temperature, gamma counting.
UniProt Q28749, sequence (Q28749 1221-1309 limits assumed): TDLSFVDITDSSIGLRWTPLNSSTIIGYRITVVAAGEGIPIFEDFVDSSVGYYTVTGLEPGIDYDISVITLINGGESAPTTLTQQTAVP

“125I-labeled L19 derivative ZK212667 (L19) (scFv)”: the rating factor (bound amount on arteriosclerotic vs non-arteriosclerotic aorta sections) turned out to be 2.8.

The values are drawn from patent US20050112690A1.
